# Experimental data from article PMC11731779, “Transferrin Disassociates TCR from CD3 Signaling Apparatus to Promote Metastasis” (Research, 2025).
# B1: T cell receptor α constant (TRAC) (domain or fragment, human, UniProt P01848 1-115, looked up)
# chain: IQNPDPAVYQLRDSKSSDKSVCLFTDFDSQTNVSQSKDSDVYITDKTVLDMRSMDFKSNSAVAWSNKSDFACANAFNNSIIPEDTFFPSPESSCDVKLVEKSFETDTNLNFQNLS
# notes: T cell receptor alpha chain constant region (TRAC), human, UniProt P01848; TRAC protein used as analyte in SPR; construct and host may stand in the Supplementary Methods; also called constant domain (CD) of TCRα; Cα
# B2: DK8 (peptide)
# peptide: DMRSMDFK
# notes: amino acids 50 to 57 of TRAC (UniProt P01848); also called interfering peptide DK8; designed peptide (DK8)
# Key:
# transferrin [1] = biological target: T1, transferrin (UniProt P02787 20-698); experiment: SPR; Biacore T200; transferrin amine-coupled to a CM5 chip at ~6,000 resonance units; analytes in PBST (0.02% Tween 20) at 20 μl/min; TCRα, TCRβ and human serum albumin at 1,000 nM; TCRα and TRAC at 125, 250, 500 and 1,000 nM; kinetic and steady-state fits; conditions: both partners purified
# T1 construct: transferrin (serotransferrin); One molecule for the transferrin immobilised for SPR, added to cells (co-IP with intervention, FRET) and co-precipitated from human PBMC / T cells; Methods are in the supplement; also called Tf
# transferrin [2] = biological target: T1, transferrin; experiment: not stated; DK8 binding to transferrin, 'binding response value' and KD (Fig. S9C and E); method not given
# T1 sequence (P02787 20-698): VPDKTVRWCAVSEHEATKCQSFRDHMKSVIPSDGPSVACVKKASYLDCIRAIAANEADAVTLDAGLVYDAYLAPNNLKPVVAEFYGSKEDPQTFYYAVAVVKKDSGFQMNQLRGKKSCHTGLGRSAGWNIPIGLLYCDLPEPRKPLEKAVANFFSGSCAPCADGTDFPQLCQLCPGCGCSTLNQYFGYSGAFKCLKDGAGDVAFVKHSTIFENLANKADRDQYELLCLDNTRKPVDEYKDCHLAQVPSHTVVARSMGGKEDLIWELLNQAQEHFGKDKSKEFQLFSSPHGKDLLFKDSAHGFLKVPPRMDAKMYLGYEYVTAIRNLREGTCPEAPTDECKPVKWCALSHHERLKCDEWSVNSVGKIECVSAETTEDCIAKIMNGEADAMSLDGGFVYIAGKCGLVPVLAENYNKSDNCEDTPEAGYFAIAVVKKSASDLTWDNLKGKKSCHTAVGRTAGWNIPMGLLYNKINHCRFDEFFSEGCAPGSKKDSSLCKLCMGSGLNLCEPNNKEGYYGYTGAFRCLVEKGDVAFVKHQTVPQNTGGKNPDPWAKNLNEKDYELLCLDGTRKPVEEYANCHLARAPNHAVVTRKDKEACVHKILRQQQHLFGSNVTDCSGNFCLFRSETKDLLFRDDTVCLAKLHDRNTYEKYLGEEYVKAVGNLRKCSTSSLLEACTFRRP
Binder,Kd (transferrin [1]) [nM],Kd (transferrin [2]) [nM]
B1,10.9,
B2,,166
